In general, Kd refers to the free concentration of one partner at which half of the binding sites on the other are occupied at equilibrium, for simple one-to-one binding.

The source of these data is US20220064329A1 (Novo Nordisk, published 2022).

T1: recombinant human activated Factor VII (FVIIa) (human, UniProt P08709 61-212; P08709 213-466, ten glutamate residues of the Gla domain may be gamma-carboxylated)
T1 construct: chains tethered by a disulfide bond; also called Factor VIIa; rFVIIa
T1 sequence 1: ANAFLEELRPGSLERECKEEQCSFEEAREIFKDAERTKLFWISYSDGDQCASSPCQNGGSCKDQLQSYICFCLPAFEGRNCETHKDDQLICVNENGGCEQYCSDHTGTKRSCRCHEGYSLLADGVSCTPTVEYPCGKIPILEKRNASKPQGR
T1 sequence 2: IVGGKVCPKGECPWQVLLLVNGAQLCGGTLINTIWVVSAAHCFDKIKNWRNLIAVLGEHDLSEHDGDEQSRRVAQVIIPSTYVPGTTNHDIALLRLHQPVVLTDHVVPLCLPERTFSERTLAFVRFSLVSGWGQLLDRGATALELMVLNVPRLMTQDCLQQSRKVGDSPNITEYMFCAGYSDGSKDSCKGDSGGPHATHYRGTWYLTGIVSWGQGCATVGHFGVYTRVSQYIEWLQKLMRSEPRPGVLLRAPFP

B1: VH SEQ ID NO 610 / VL SEQ ID NO 502 (antibody, IgG4, V domains shown)
VH: QVQLQESGPGLVKPSQTLSLTCTVSGGSITSDSAWSWIRQPPGKGLEWIGYIQYSGSTNYNPSLKSRVTISVDTSKNQFSLKLSSVTAADTAVYYCARSVNYYGNSFAVGYWGQGTLVTVSS
VL: EIVLTQSPATLSLSPGERATLSCRASQGVSDYLHWYQQKPGQAPRLLIKYTSQPATGIPARFSGSGSGTDFTLTISSLEPEDFAVYYCQNGHSFPLTFGQGTKLEIK
notes: humanized 11F2; IgG4 S228P/kappa
B2: VH SEQ ID NO 618 / VL SEQ ID NO 350 (antibody, IgG4, V domains shown)
VH: QVQLQESGPGLVKPSQTLSLTCTVSGYSISSDSAWSWIRQFPGKGLEWIGYIQYSGSTNYNPSLKSRVTISRDTSKNQFSLKLSSVTAADTAVYYCARSVNYYGNSFAVGPWGQGTLVTVSS
VL: EIVLTQSPATLSLSPGERATLSCRASQGISDYLHWYQQKPGQAPRLLIKYTSQPATGIPARFSGSGSGTDFTLTISSLEPEDFAVYYCQNGHSFPLTFGAGTKLELK
notes: as for B1
B3: VH SEQ ID NO 618 / VL SEQ ID NO 406 (antibody, IgG4, V domains shown)
VH: QVQLQESGPGLVKPSQTLSLTCTVSGYSISSDSAWSWIRQFPGKGLEWIGYIQYSGSTNYNPSLKSRVTISRDTSKNQFSLKLSSVTAADTAVYYCARSVNYYGNSFAVGPWGQGTLVTVSS
VL: EIVLTQSPATLSLSPGERATLSCRASQGVSDYLAWYQQKPGQAPRLLIKYASQPATGIPARFSGSGSGTDFTLTISSLEPEDFAVYYCQNGHSFPLTFGAGTKLEIK
notes: as for B1
B4: VH SEQ ID NO 618 / VL SEQ ID NO 358 (antibody, IgG4, V domains shown)
VH: QVQLQESGPGLVKPSQTLSLTCTVSGYSISSDSAWSWIRQFPGKGLEWIGYIQYSGSTNYNPSLKSRVTISRDTSKNQFSLKLSSVTAADTAVYYCARSVNYYGNSFAVGPWGQGTLVTVSS
VL: EIVLTQSPATLSLSPGERATLSCRASQGISDYLHWYQQKPGQAPRLLIKYTSQPATGIPARFSGSGSGTDFTLTISSLEPEDFAVYYCQNGHSFPLTFGQGTKLEIK
notes: as for B1
B5: VH SEQ ID NO 618 / VL SEQ ID NO 390 (antibody, IgG4, V domains shown)
VH: QVQLQESGPGLVKPSQTLSLTCTVSGYSISSDSAWSWIRQFPGKGLEWIGYIQYSGSTNYNPSLKSRVTISRDTSKNQFSLKLSSVTAADTAVYYCARSVNYYGNSFAVGPWGQGTLVTVSS
VL: EIVLTQSPATLSLSPGERATLSCRASQGVSDYLAWYQQKPGEAPRLLIKYASQPATGIPARFSGSGSGTDFTLTISSLEPEDFAVYYCQNGHSFPLTFGQGTKLEIK
notes: as for B1
B6: VH SEQ ID NO 618 / VL SEQ ID NO 422 (antibody, IgG4, V domains shown)
VH: QVQLQESGPGLVKPSQTLSLTCTVSGYSISSDSAWSWIRQFPGKGLEWIGYIQYSGSTNYNPSLKSRVTISRDTSKNQFSLKLSSVTAADTAVYYCARSVNYYGNSFAVGPWGQGTLVTVSS
VL: EIVLTQSPATLSLSPGERATLSCRASQGVSDYLAWYQQKPGQAPRLLIKYASQPATGIPARFSGSGSGTDFTLTISSLEPEDFAVYYCQQGHSFPLTFGQGTKLEIK
notes: as for B1
B7: VH SEQ ID NO 618 / VL SEQ ID NO 382 (antibody, IgG4, V domains shown)
VH: QVQLQESGPGLVKPSQTLSLTCTVSGYSISSDSAWSWIRQFPGKGLEWIGYIQYSGSTNYNPSLKSRVTISRDTSKNQFSLKLSSVTAADTAVYYCARSVNYYGNSFAVGPWGQGTLVTVSS
VL: EIVLTQSPATLSLSPGERATLSCRASQGLSDYLHWYQQKPGEAPRLLIKYASQPATGIPARFSGSGSGTDFTLTISSLEPEDFAVYYCQNGHSFPLTFGQGTKLEIK
notes: as for B1
B8: VH SEQ ID NO 618 / VL SEQ ID NO 454 (antibody, IgG4, V domains shown)
VH: QVQLQESGPGLVKPSQTLSLTCTVSGYSISSDSAWSWIRQFPGKGLEWIGYIQYSGSTNYNPSLKSRVTISRDTSKNQFSLKLSSVTAADTAVYYCARSVNYYGNSFAVGPWGQGTLVTVSS
VL: EIVLTQSPATLSLSPGERATLSCRASQGVSDYLHWYQQKPGEAPRLLIKYASQPATGIPARFSGSGSGTDFTLTISSLEPEDFAVYYCQNGHSFPLTFGQGTKLEIK
notes: as for B1
B9: VH SEQ ID NO 618 / VL SEQ ID NO 318 (antibody, IgG4, V domains shown)
VH: QVQLQESGPGLVKPSQTLSLTCTVSGYSISSDSAWSWIRQFPGKGLEWIGYIQYSGSTNYNPSLKSRVTISRDTSKNQFSLKLSSVTAADTAVYYCARSVNYYGNSFAVGPWGQGTLVTVSS
VL: EIVLTQSPATLSLSPGERATLSCRASQGISDYLHWYQQKPGEAPRLLIKYTSQPATGIPARFSGSGSGTDFTLTISSLEPEDFAVYYCQNGHSFPLTFGQGTKLEIK
notes: as for B1
B10: VH SEQ ID NO 618 / VL SEQ ID NO 446 (antibody, IgG4, V domains shown)
VH: QVQLQESGPGLVKPSQTLSLTCTVSGYSISSDSAWSWIRQFPGKGLEWIGYIQYSGSTNYNPSLKSRVTISRDTSKNQFSLKLSSVTAADTAVYYCARSVNYYGNSFAVGPWGQGTLVTVSS
VL: EIVLTQSPATLSLSPGERATLSCRASQGVSDYLAWYQQKPGQAPRLLIKYTSQPATGIPARFSGSGSGTDFTLTISSLEPEDFAVYYCQNGHSFPLTFGQGTKLEIK
notes: as for B1
B11: VH SEQ ID NO 618 / VL SEQ ID NO 414 (antibody, IgG4, V domains shown)
VH: QVQLQESGPGLVKPSQTLSLTCTVSGYSISSDSAWSWIRQFPGKGLEWIGYIQYSGSTNYNPSLKSRVTISRDTSKNQFSLKLSSVTAADTAVYYCARSVNYYGNSFAVGPWGQGTLVTVSS
VL: EIVLTQSPATLSLSPGERATLSCRASQGVSDYLAWYQQKPGQAPRLLIKYASQPATGIPARFSGSGSGTDFTLTISSLEPEDFAVYYCQNGHSFPLTFGQGTKLEIK
notes: as for B1
B12: VH SEQ ID NO 618 / VL SEQ ID NO 366 (antibody, IgG4, V domains shown)
VH: QVQLQESGPGLVKPSQTLSLTCTVSGYSISSDSAWSWIRQFPGKGLEWIGYIQYSGSTNYNPSLKSRVTISRDTSKNQFSLKLSSVTAADTAVYYCARSVNYYGNSFAVGPWGQGTLVTVSS
VL: EIVLTQSPATLSLSPGERATLSCRASQGLSDYLAWYQQKPGEAPRLLIKYASQPATGIPARFSGSGSGTDFTLTISSLEPEDFAVYYCQNGHSFPLTFGQGTKLEIK
notes: as for B1
B13: VH SEQ ID NO 618 / VL SEQ ID NO 310 (antibody, IgG4, V domains shown)
VH: QVQLQESGPGLVKPSQTLSLTCTVSGYSISSDSAWSWIRQFPGKGLEWIGYIQYSGSTNYNPSLKSRVTISRDTSKNQFSLKLSSVTAADTAVYYCARSVNYYGNSFAVGPWGQGTLVTVSS
VL: EIVLTQSPATLSLSPGERATLSCRASQGISDYLAWYQQKPGQAPRLLIKYASQPATGIPARFSGSGSGTDFTLTISSLEPEDFAVYYCQNGHSFPLTFGQGTKLEIK
notes: as for B1
B14: VH SEQ ID NO 618 / VL SEQ ID NO 334 (antibody, IgG4, V domains shown)
VH: QVQLQESGPGLVKPSQTLSLTCTVSGYSISSDSAWSWIRQFPGKGLEWIGYIQYSGSTNYNPSLKSRVTISRDTSKNQFSLKLSSVTAADTAVYYCARSVNYYGNSFAVGPWGQGTLVTVSS
VL: EIVLTQSPATLSLSPGERATLSCRASQGISDYLHWYQQKPGQAPRLLIKYASQPATGIPARFSGSGSGTDFTLTISSLEPEDFAVYYCQNGHSFPLTFGQGTKLEIK
notes: as for B1
B15: VH SEQ ID NO 618 / VL SEQ ID NO 438 (antibody, IgG4, V domains shown)
VH: QVQLQESGPGLVKPSQTLSLTCTVSGYSISSDSAWSWIRQFPGKGLEWIGYIQYSGSTNYNPSLKSRVTISRDTSKNQFSLKLSSVTAADTAVYYCARSVNYYGNSFAVGPWGQGTLVTVSS
VL: EIVLTQSPATLSLSPGERATLSCRASQGVSDYLAWYQQKPGQAPRLLIKYASQPATGIPARFSGSGSGTDFTLTISSLEPEDVAVYYCQNGHSFPLTFGQGTKLEIK
notes: as for B1
B16: VH SEQ ID NO 618 / VL SEQ ID NO 430 (antibody, IgG4, V domains shown)
VH: QVQLQESGPGLVKPSQTLSLTCTVSGYSISSDSAWSWIRQFPGKGLEWIGYIQYSGSTNYNPSLKSRVTISRDTSKNQFSLKLSSVTAADTAVYYCARSVNYYGNSFAVGPWGQGTLVTVSS
VL: EIVLTQSPATLSLSPGERATLSCRASQGVSDYLAWYQQKPGQAPRLLIKYASQPATGIPARFSGSGSGTDFTLTISSLEPEDFGVYYCQNGHSFPLTFGQGTKLEIK
notes: as for B1
B17: VH SEQ ID NO 618 / VL SEQ ID NO 462 (antibody, IgG4, V domains shown)
VH: QVQLQESGPGLVKPSQTLSLTCTVSGYSISSDSAWSWIRQFPGKGLEWIGYIQYSGSTNYNPSLKSRVTISRDTSKNQFSLKLSSVTAADTAVYYCARSVNYYGNSFAVGPWGQGTLVTVSS
VL: EIVLTQSPATLSLSPGERATLSCRASQGVSDYLHWYQQKPGQAPRLLIKYASQPATGIPARFSGSGSGTDFTLTISSLEPEDFAVYYCQNGHSFPLTFGAGTKLEIK
notes: as for B1
B18: VH SEQ ID NO 618 / VL SEQ ID NO 342 (antibody, IgG4, V domains shown)
VH: QVQLQESGPGLVKPSQTLSLTCTVSGYSISSDSAWSWIRQFPGKGLEWIGYIQYSGSTNYNPSLKSRVTISRDTSKNQFSLKLSSVTAADTAVYYCARSVNYYGNSFAVGPWGQGTLVTVSS
VL: EIVLTQSPATLSLSPGERATLSCRASQGISDYLHWYQQKPGQAPRLLIKYTSQPATGIPARFSGSGSGRDFTLTISSLEPEDFAVYYCQNGHSFPLTFGAGTKLELK
notes: as for B1
B19: VH SEQ ID NO 618 / VL SEQ ID NO 326 (antibody, IgG4, V domains shown)
VH: QVQLQESGPGLVKPSQTLSLTCTVSGYSISSDSAWSWIRQFPGKGLEWIGYIQYSGSTNYNPSLKSRVTISRDTSKNQFSLKLSSVTAADTAVYYCARSVNYYGNSFAVGPWGQGTLVTVSS
VL: EIVLTQSPATLSLSPGERATLSCRASQGISDYLHWYQQKPGEAPRLLIKYTSQPATGIPARFSGSGSGTDFTLTISSLEPEDFGVYYCQNGHSFPLTFGAGTKLELK
notes: as for B1
B20: VH SEQ ID NO 618 / VL SEQ ID NO 398 (antibody, IgG4, V domains shown)
VH: QVQLQESGPGLVKPSQTLSLTCTVSGYSISSDSAWSWIRQFPGKGLEWIGYIQYSGSTNYNPSLKSRVTISRDTSKNQFSLKLSSVTAADTAVYYCARSVNYYGNSFAVGPWGQGTLVTVSS
VL: EIVLTQSPATLSLSPGERATLSCRASQGVSDYLAWYQQKPGEAPRLLIKYTSQPATGIPARFSGSGSGTDFTLTISSLEPEDFAVYYCQNGHSFPLTFGQGTKLEIK
notes: as for B1

The test addresses T1, recombinant human activated Factor VII …. Briefly: BLI (Fortebio). A general note: In BLI a coated tip is dipped into the sample, and binding shifts an interference pattern.
Turning to B1, the Kd amounted to 17 nM. Turning to B2, the Kd turned out to be 1 nM.

B3: the Kd is 24 nM. Turning to B4, the Kd was determined as 0.95 nM. In the case of B5, the Kd was 33 nM. For B6 the value was 5800 nM; for B7, 1.1 nM; for B8, 1.3 nM. With B9, the Kd amounted to 1.1 nM. On to B10, for which the Kd came to 200 nM.

Consider B11, for which the Kd came to 24 nM. Turning to B12, the Kd is 21 nM.

Turning to B13, the Kd came to 12 nM. For B14 the value was 1.3 nM. For the molecule B15, the Kd came to 34 nM. For B16 the value was 110 nM; for B17, 1.4 nM; for B18, 1.2 nM. As for B19, the Kd came out at 1.1 nM. Take B20: the Kd was found to be 180 nM.
